Test results from article PMC2734569, “Functional mapping of the fission yeast DNA polymerase δ B-subunit Cdc1 by site-directed and random pentapeptide insertion mutagenesis” (BMC Molecular Biology, 2009).

Tests used:
Assay in all cases: two-hybrid; LexA-Cdc1 bait (pBTM116 or pBTM116BN) with Gal4 activation domain-Cdc27 prey (pGAD2F-Cdc27) in S. cerevisiae CTY10-5d; ONPG liquid culture beta-galactosidase assay, mean of triplicates, as percent of wild-type Cdc1
Details in all cases: partners not purified
Cdc1-J1 = target: T1, Cdc1-J1 (Schizosaccharomyces pombe, UniProt P87324 1-462, Thr-GlyValProLeuThr-Gly)
T1 construct: Cdc1, S. pombe, with a pentapeptide inserted after residue 141; source: yeast two-hybrid fusion, in S. cerevisiae CTY10-5d
T1 sequence (looked up): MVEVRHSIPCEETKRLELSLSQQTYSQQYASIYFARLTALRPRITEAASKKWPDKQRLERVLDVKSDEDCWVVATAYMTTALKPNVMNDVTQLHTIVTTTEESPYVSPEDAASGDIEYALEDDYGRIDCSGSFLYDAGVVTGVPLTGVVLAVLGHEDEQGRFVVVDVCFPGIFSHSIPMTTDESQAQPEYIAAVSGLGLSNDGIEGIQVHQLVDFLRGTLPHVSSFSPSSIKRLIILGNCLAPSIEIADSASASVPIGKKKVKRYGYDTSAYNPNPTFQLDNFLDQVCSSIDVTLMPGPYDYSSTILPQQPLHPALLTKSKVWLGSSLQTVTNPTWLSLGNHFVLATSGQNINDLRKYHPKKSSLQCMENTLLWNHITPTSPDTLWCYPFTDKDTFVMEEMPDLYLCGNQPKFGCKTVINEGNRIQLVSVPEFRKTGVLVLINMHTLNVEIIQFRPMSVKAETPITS

Cdc1-A6 = target: T2, Cdc1-A6 (Schizosaccharomyces pombe, UniProt P87324 1-462, Pro329Ala)
T2 construct: Cdc1, S. pombe, point mutant; source: yeast two-hybrid fusion, in S. cerevisiae CTY10-5d
T2 sequence (looked up): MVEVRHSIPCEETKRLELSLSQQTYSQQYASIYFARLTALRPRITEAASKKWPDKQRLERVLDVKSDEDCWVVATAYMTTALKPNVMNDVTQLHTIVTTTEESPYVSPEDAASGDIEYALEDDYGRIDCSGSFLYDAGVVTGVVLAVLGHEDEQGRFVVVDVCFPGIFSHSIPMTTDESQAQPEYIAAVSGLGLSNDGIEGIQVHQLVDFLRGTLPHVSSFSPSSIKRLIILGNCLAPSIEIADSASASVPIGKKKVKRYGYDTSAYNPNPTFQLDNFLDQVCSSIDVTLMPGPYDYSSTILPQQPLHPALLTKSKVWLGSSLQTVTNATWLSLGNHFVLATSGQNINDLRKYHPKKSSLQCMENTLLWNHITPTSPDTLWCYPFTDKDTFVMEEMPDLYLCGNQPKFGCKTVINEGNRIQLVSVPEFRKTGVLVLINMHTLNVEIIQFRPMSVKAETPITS

Cdc1-J12 = target: T3, Cdc1-J12 (Schizosaccharomyces pombe, UniProt P87324 1-462, Ser-GlyValProHisSer-Ile)
T3 construct: Cdc1, S. pombe, with a pentapeptide inserted after residue 7; source: yeast two-hybrid fusion, in S. cerevisiae CTY10-5d
T3 sequence (looked up): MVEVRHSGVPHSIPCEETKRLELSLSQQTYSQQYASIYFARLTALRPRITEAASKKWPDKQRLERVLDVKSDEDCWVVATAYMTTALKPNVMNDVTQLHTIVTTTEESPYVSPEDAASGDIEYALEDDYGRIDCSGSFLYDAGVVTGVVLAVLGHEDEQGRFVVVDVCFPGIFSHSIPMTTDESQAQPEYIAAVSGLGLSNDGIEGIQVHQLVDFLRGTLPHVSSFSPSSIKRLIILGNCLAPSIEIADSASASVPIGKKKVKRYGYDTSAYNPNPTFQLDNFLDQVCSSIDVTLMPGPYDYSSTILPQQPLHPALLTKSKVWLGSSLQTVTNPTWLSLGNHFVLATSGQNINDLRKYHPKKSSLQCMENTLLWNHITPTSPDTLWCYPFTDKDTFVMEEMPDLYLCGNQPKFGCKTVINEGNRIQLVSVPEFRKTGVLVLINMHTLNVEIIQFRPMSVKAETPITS

Cdc1-J2 = target: T4, Cdc1-J2 (Schizosaccharomyces pombe, UniProt P87324 1-462, Tyr-ArgGlyThrProTyr-Ser)
T4 construct: Cdc1, S. pombe, with a pentapeptide inserted after residue 25; also called J18; J20; source: yeast two-hybrid fusion, in S. cerevisiae CTY10-5d
T4 sequence (looked up): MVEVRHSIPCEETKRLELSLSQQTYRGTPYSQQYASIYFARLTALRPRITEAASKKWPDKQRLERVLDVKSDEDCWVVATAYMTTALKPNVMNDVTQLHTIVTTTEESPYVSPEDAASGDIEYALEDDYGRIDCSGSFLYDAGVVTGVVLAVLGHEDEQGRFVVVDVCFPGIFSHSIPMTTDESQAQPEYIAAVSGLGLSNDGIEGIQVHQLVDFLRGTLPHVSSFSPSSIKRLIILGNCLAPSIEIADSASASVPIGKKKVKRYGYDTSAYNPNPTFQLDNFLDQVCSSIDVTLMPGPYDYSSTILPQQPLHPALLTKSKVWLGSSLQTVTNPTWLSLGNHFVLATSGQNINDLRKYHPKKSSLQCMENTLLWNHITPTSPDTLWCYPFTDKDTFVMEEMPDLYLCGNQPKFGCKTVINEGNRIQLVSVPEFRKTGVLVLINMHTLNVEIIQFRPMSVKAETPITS

B1: Cdc27 (fission yeast DNA polymerase delta C-subunit) (natural protein, Schizosaccharomyces pombe, UniProt P30261 1-372, looked up)
chain: MEEWRNFLDIKVINESSLVTVDNLSLQLDISSEKAQEYLNMFYQGNDFLYPIYLIHGQPIDDEINLEIDEESQPISNFPVLQYILCDKSSLQEKQSRLKSGYKTVIFALSSAPLSDFDELLPAVYEIREKDVLYKKEDADKYGFIFNENSVPRVLKKAPSTHSPQLSVPSKTSTIDKTDTRSTEKTKGKDIFSNARNQKGNSSRKNKKAPLENHKEKEPLLPKEEKLSEQAKRERDDLKNIMQLEDESVSTTSVHDSEDDNLDSNNFQLEIGTEAKSAAPDEPQEIIKSVSGGKRRGKRKVKKYATTKDEEGFLVTKEEEVWESFSEDENISTGTSNVVRNKPTTVNIATKKKNTAQSKPQQKSIMSFFGKK
notes: DNA polymerase delta C-subunit Cdc27, S. pombe; prey plasmid pGAD2F-Cdc27; also called pGAD2F-Cdc27; source: yeast two-hybrid fusion, in S. cerevisiae CTY10-5d
two-hybrid beta-galactosidase activity, % of wild-type Cdc1 (Cdc1-J1): < 1%
two-hybrid beta-galactosidase activity, % of wild-type Cdc1 (Cdc1-A6): 6%
two-hybrid beta-galactosidase activity, % of wild-type Cdc1 (Cdc1-J12): 59%
two-hybrid beta-galactosidase activity, % of wild-type Cdc1 (Cdc1-J2): < 1%
